Consider 6 molecules from patent publication US20050222400, “Aptamer constructs” (published 2005).

The target of series [1] is T1, HIV-1 reverse transcriptase (RT) (HIV-1, UniProt P04585;P04585 P04585:588-1147,P04585:588-1027). The experiment in a line: EMSA; 50 mM KCl, 25 mM NaCl, 5% glycerol, BSA, 25 C. As for the experimental part: (§1) Radiolabeled, processed RNA aptamers were gel purified and eluted in 500 mM NH₄OAc/1 mM EDTA/0.2% SDS. RNA was then treated with phenouchloroform and ethanol precipitated. Electrophoretic mobility shift assays were performed by incubating 10 fmol purified RNA aptamer with increasing amounts of purified HIV-1 RT at 25° C. in 10 μl of buffer containing 50 mM KCl, 25 mM NaCl, 5% glycerol, 300 μg/ml BSA. The reaction products were electrophoresed on native polyacrylamide gels. Dried gels were exposed to a phosphorimager screen and Kd calculated by using the ImageQuant software. To determine the binding strengths, the percentage of band shift observed with increasing concentrations of RT (1 nM to 500 nM), with respect to the no protein control lane, was first determined. The Kd values were determined by fitting data from three independent experiments to a dose response curve using nonlinear regression (Cann 1996) (GraphPad Software Inc.).
Therefore, the ability of each of the 10 selected RNA aptamers to bind recombinant purified HIV-1 RT was evaluated in vitro via an electrophoretic mobility shift assay (EMSA) and the dissociation constants determined for each individual aptamer in its processed form. In vitro transcription of the primary transcripts, with T3 RNA polymerase was followed by gel purification of the processed aptamers. The aptamer RNAs were incubated with increasing concentrations of purified recombinant HIV-1 RT, the reactions were resolved on a non-denaturing polyacrylamide gel (FIG. 3) and Kd values calculated based on the degree of band shift caused by the formation of RNA-protein complexes (see Methods section).

The target of series [2] is T1, HIV-1 reverse transcriptase (RT). Briefly: inhibition; RT activity, 80 mM KCl, 6 mM MgCl2, pH 8.0, 37 C. As for the experimental part: (§2) In vitro RT inhibition. To determine the IC₅₀ values, self-cleaved RNA aptamers were gel purified and eluted in 500 mM NH₄OAc/1 mM EDTA/0.2% SDS. RNA was then treated with phenol/chloroform and ethanol precipitated. RT reactions (50 μl) contained 80 mM KCl, 50 mM Tris-Cl (pH 8.0), 6 mM MgCl₂, 1 mM dithiothreitol (DTT), 0.1 mg/ml BSA, 10 μM […], 25 μM each of the remaining three dNTPs, and a range of concentrations of RNA aptamers (1 nM to 1000 nM). Reactions were incubated at 37° C. for 15 min. Reactions initiated by the addition of 25 ng of purified HIV-1 RT and at the end of the reaction, aliquots were spotted onto DE81 filter paper and washed with 2×SSC (30 mM Sodium Citrate, 300 mM NaCl pH 7.0). Dried filters were then counted and individual IC₅₀s were determined by fitting results to a dose-response curve using nonlinear regression (GraphPad Software Inc., San Diego, Calif.).
(§3) Next, the ability of each of the 10 selected RNA aptamers to inhibit recombinant purified HIV-1 RT was evaluated in vitro and the degree of inhibition (IC₅₀) by each aptamer was determined. In vitro transcription of the primary transcripts with T3 RNA polymerase was followed by gel purification of the processed aptamers. The IC₅₀s calculated ranged from 89 nM to >1000 nM (Table 1). Six RNA aptamers were selected for further studies, to test their effectiveness in inhibiting HIV-1 replication.

For series [3] the target is unchanged. Briefly: inhibition; RT activity, 80 mM KCl, 50 mM Tris pH 8.0, 6 mM MgCl2, 37 C. As to conditions: pseudoknot-like potential stated for some aptamers. As for the experimental part:
as §2, §3

The target is the same in series [4]. Briefly: EMSA; 50 mM KCl, 25 mM NaCl, 5% glycerol, BSA, 25 C; processed RNA with flanks. The following applies: pseudoknot-like potential stated for some aptamers. As for the experimental part: as §1
Therefore, the ability of each of the 10 selected RNA aptamers to bind recombinant purified HIV-1 RT was evaluated in vitro via an electrophoretic mobility shift assay (EMSA) and the dissociation constants determined for each individual aptamer in its processed form. In vitro transcription of the primary transcripts, with T3 RNA polymerase was followed by gel purification of the processed aptamers. […]

B1: aptamer 80.55,65 (ssRNA)
RNA: AGCUCGAGCUCGAAUUCAUUUAAUUCCAUAAUGGCUCACCACAAGGGGAACGUUGAUGAAAUAGGGCCCGGAUCCGUC
Regarding B1, binding in series [1] was characterised by a dissociation constant (Kd) of 129 nM. The same molecule gave an IC50 in series [2] of 143 nM.

B2: aptamer 70.8,13 (ssRNA)
RNA: AGCUCGAGCUCGAAUUCAAAGAGAUCUGGCAGUGUCACAACCAGGAAAAAGACACGACGAACGGGCCCGGAUCCGUC
B2: the IC50 in series [3] came out at 89 nM. In series [4], this molecule displayed a Kd of 27 nM.

B3: aptamer 70.28 (ssRNA)
RNA: AGCUCGAGCUCGAAUUCACAAGAACCGGACCGGGUGAGAACCGAGACAAACACCCACCAAGAGGGCCCGGAUCCGUC
Consider B3, for which binding in series [1] (pseudoknot) was put at a Kd of 201 nM. In series [2] (pseudoknot), this molecule came in with an IC50 of 254 nM.

B4: aptamer 1.1 (ssRNA)
RNA: AGCUCGAGCUCGAAUUCGGGAGAUUCCGUUUUCAGUCCGGGAAAAACUGAAGGGCCCGGAUCCGUC
In the case of B4, binding in series [1] was characterised by a dissociation constant (Kd) of 270 nM. This molecule also had an IC50 in series [2] of 607 nM.

B5: aptamer 70.28t34 (ssRNA)
RNA: AGCUCGAGCUCGAAUUCGGGAACCGGACGGGUGAGAACCGAGACAAACACCGGGCCCGGAUCCGUC
Consider B5, for which the Kd in series [1] was determined as 219 nM. The molecule also yielded an IC50 in series [2] of 327 nM.

B6: aptamer 70.15 (ssRNA)
RNA: AGCUCGAGCUCGAAUUCCCUACGAACCCAGGAGAUAAGGGGGAAAACUCUGGAAAACGGGCCCGGAUCCGUC
In series [1], B6 displayed a dissociation constant (Kd) of 63 nM. Further, half-maximal inhibition in series [2] (IC50) was put at 159 nM.
